The text below walks through data of patent US20060073576A1.

The assay addresses gp120 (strain not stated). Nature of the assay: competitive ELISA.

Substance “CD4M8 (double mutant of CD4M3: Gln20Ala, Thr25Ala) (designed binder)” gave a fold increase in binding affinity over CD4M3 above 10 fold.
